B1: N3-4A-F (single amino acid N3 mutant N3-4A with Flag epitope) (peptide, not shown: small tags and cut ends)
peptide: DDVAYCGLKY
B2: N3-2A fused to a C-terminal Flag epitope (N3-2A-F) (peptide, not shown: small tags and cut ends)
peptide: DAVYYCGLKY
notes: also called BRI2-derived peptide

Legend:
[1] = biological target: T1, amyloid precursor protein (APP), transfected into HeLa or HEK293 cells (UniProt P05067 18-770); assay: α-Flag IP from HeLa/APP cells incubated with Flagged peptide, Western blot for APP
T1 construct: whole, on cells; Scheinfeld et al, 2002)'; also called mature APP; HeLa-APP
T1 sequence (P05067 18-770): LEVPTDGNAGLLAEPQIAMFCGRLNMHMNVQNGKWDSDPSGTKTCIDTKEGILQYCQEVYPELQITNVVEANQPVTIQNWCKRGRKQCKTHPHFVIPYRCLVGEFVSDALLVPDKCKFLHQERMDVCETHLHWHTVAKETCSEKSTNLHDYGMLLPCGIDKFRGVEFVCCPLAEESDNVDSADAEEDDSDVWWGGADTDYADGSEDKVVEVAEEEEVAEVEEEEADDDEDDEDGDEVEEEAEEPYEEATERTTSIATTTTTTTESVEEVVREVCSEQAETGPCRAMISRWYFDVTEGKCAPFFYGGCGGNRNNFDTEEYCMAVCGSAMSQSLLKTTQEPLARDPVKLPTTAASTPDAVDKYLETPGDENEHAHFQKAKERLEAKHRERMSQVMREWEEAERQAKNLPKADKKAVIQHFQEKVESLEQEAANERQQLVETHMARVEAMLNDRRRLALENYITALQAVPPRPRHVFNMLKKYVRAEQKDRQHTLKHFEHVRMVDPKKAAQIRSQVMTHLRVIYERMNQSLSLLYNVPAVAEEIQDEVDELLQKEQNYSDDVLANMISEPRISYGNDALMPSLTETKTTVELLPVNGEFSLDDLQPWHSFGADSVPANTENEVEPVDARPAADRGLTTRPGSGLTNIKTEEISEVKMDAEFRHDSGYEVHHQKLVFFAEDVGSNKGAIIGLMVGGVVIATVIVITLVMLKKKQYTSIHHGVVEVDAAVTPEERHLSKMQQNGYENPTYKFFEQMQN

[2] = biological target: T2, β-CTF (C-terminal fragment of APP made by β-secretase cleavage) (UniProt P05067 672-770); assay: α-Flag IP from HeLa/APP cells incubated with N3-2A-F, Western blot for APP-CTFs
T2 construct: domain: β-CTF; also called APP-CTF
T2 sequence (P05067 672-770 limits assumed): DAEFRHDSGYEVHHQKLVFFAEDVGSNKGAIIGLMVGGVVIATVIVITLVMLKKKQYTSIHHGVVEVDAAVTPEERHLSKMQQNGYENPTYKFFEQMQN

| Binder | binding result [1] | binding result [2] |
| --- | --- | --- |
| B1 | no binding (tested: 40 µM) |  |
| B2 |  | no binding (tested: 40 µM) |
